Substrate: O=C(O)[C@@H](O)[C@H](O)[C@H](O)[C@@H](O)C(=O)O
Test: purified protein
Assay type: biochemical, Oceanobacillus iheyensis
Conditions: 50 mM Hepes pH 8.0, 5 mM MgCl2

| Protein | Km | kcat | kcat/Km |
| --- | --- | --- | --- |
| Ob2843; galactarate dehydratase GalrD-II (Oceanobacillus iheyensis HTE831) (protein) MKITDLELHAVGIPRHTGFVNKHVIVKIHTDEGLTGIGEMSDFSHLPLYSVDLHDLKQGLLSILLGQNPFDLMKINKELTDNFPETMYYYEKGSFIRNGIDNALHDLCAKYLDISVSDFLGGRVKEKIKVCYPIFRHRFSEEVESNLDVVRQKLEQGFDVFRLYVGKNLDADEEFLSRVKEEFGSRVRIKSYDFSHLLNWKDAHRAIKRLTKYDLGLEMIESPAPRNDFDGLYQLRLKTDYPISEHVWSFKQQQEMIKKDAIDIFNISPVFIGGLTSAKKAAYAAEVASKDVVLGTTQELSVGTAAMAHLGCSLTNINHTSDPTGPELYVGDVVKNRVTYKDGYLYAPDRSVKGLGIELDESLLAKYQVPDLSWDNVTVHQLQDRTADTKS | 0.62 ± 0.38 mM | 6.8 ± 1.2 s⁻¹ | 11000 M⁻¹ s⁻¹ |
| Ob2843; galactarate dehydratase GalrD-II (Oceanobacillus iheyensis HTE831; Y90F) (protein) MKITDLELHAVGIPRHTGFVNKHVIVKIHTDEGLTGIGEMSDFSHLPLYSVDLHDLKQGLLSILLGQNPFDLMKINKELTDNFPETMYYFEKGSFIRNGIDNALHDLCAKYLDISVSDFLGGRVKEKIKVCYPIFRHRFSEEVESNLDVVRQKLEQGFDVFRLYVGKNLDADEEFLSRVKEEFGSRVRIKSYDFSHLLNWKDAHRAIKRLTKYDLGLEMIESPAPRNDFDGLYQLRLKTDYPISEHVWSFKQQQEMIKKDAIDIFNISPVFIGGLTSAKKAAYAAEVASKDVVLGTTQELSVGTAAMAHLGCSLTNINHTSDPTGPELYVGDVVKNRVTYKDGYLYAPDRSVKGLGIELDESLLAKYQVPDLSWDNVTVHQLQDRTADTKS | 2.0 ± 0.48 mM | 0.0061 ± 0.006 s⁻¹ | 3.1 M⁻¹ s⁻¹ |

Source: PMC2787699
